Assay results from PMC4551919 (Nucleic Acids Research, 2015).

Experiments:
[1] = target: T1, SMG-1, full length, SBP-tagged (human, UniProt Q96Q15 1-3661); test: cross-linking
[2] = target: T1, SMG-1, full length, SBP-tagged; test: cryo-EM structure
SMG-1–8–9 complex = SMG-1–8–9 complex (human | , UniProt Q96Q15;Q8ND04;Q9H0W8); test: negative-stain electron microscopy
Chain of SMG-1–8–9 complex (Q96Q15 whole entry, one chain of several): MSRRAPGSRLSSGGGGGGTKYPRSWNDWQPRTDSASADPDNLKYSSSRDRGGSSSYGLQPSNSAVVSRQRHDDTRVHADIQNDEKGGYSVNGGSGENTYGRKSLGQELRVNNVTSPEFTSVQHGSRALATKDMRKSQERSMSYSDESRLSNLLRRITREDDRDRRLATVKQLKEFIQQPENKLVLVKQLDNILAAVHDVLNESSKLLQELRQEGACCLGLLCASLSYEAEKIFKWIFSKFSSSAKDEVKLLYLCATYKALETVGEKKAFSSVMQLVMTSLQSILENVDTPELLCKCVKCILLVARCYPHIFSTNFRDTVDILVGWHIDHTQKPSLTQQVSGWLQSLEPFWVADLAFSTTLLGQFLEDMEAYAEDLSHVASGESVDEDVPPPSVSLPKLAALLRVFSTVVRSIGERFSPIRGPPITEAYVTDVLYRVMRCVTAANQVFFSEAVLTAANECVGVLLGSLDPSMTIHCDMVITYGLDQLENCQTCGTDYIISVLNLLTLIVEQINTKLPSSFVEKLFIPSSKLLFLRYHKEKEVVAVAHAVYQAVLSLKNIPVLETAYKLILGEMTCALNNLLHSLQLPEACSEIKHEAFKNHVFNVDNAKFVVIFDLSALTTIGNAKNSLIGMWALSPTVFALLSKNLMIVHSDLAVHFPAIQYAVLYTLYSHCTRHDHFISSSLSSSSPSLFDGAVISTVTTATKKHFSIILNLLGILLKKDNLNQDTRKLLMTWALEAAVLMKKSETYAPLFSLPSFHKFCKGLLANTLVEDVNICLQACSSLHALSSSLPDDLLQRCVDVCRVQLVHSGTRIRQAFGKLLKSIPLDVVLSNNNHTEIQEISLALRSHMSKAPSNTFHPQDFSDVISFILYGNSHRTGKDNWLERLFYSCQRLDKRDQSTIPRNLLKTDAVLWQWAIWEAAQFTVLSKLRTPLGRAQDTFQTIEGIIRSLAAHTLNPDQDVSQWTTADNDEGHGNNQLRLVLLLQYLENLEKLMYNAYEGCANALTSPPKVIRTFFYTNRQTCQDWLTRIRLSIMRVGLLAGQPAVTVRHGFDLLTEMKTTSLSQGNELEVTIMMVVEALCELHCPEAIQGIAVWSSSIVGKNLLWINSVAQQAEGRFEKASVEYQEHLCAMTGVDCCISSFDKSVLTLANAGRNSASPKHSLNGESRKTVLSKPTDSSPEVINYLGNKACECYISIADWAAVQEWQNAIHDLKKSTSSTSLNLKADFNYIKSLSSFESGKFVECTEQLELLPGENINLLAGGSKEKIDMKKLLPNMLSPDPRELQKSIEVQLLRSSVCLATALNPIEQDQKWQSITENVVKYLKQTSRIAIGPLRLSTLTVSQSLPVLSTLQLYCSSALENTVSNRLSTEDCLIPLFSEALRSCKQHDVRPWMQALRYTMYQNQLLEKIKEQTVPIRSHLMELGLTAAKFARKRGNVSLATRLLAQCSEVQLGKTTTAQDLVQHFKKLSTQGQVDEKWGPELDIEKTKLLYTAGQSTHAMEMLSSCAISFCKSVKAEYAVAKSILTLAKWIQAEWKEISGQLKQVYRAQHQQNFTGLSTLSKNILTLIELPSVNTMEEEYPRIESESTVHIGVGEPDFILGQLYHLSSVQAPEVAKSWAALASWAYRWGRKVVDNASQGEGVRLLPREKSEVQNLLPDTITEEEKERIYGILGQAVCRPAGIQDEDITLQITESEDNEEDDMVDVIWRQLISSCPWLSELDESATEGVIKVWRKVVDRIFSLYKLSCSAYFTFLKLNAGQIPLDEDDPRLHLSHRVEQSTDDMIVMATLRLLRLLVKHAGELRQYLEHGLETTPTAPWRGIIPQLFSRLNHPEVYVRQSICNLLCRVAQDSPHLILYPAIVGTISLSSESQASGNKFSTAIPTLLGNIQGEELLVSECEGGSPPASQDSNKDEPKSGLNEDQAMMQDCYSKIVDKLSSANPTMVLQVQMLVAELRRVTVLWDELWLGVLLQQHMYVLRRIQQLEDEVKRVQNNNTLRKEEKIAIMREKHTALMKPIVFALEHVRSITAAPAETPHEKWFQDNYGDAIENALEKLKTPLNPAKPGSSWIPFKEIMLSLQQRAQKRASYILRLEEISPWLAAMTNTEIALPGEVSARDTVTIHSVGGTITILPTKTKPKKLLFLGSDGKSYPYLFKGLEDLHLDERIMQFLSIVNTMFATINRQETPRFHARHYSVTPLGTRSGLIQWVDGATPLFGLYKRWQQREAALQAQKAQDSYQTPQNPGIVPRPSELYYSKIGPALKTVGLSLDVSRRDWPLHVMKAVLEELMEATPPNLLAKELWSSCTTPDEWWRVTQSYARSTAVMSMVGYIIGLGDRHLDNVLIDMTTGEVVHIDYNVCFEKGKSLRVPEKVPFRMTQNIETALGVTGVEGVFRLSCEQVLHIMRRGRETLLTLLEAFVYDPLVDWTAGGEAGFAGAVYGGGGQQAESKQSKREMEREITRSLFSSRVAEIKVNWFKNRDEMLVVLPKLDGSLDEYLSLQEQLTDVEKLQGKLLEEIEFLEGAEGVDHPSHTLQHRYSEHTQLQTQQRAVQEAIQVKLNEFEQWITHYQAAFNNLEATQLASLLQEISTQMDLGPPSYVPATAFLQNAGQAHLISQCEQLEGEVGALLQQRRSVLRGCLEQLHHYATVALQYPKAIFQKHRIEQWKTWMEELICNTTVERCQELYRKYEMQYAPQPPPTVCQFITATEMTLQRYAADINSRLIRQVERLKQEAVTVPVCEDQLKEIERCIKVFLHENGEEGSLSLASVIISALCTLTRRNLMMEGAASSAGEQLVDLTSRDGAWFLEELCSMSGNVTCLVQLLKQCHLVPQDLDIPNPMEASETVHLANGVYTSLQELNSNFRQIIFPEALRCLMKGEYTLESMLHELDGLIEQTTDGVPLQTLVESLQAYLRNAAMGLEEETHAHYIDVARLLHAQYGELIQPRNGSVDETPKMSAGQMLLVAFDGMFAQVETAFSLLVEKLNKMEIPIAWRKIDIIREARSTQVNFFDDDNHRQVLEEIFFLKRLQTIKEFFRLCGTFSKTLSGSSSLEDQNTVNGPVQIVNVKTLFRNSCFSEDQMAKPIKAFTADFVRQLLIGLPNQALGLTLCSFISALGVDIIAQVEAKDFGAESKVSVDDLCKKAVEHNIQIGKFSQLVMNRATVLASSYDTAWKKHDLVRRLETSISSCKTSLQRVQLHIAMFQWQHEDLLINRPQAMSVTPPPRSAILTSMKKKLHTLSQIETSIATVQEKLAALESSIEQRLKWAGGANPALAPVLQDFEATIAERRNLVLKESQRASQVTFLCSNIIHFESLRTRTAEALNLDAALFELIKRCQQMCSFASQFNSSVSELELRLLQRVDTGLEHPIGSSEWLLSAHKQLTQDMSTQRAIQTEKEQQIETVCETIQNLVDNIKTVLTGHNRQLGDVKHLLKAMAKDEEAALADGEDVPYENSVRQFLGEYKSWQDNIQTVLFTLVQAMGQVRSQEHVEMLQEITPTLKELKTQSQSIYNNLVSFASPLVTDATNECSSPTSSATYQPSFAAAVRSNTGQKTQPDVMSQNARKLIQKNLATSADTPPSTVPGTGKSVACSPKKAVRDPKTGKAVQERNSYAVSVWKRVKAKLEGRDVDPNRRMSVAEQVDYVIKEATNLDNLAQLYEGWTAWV

T1 sequence (Q96Q15 whole entry): as the sequence (Q96Q15 whole entry, one chain of several) above

binding result [1] | binding result [2] | binding result (SMG-1–8–9 complex) | Binder
binds |  |  | SMG-8 (natural protein) MAGPVSLRDLLMGASAWMGSESPGGSPTEGGGSAAGGPEPPWREDEICVVGIFGKTALRLNSEKFSLVNTVCDRQVFPLFRHQDPGDPGPGIRTEAGAVGEAGGAEDPGAAAGGSVRGSGAVAEGNRTEAGSQDYSLLQAYYSQESKVLYLLLTSICDNSQLLRACRALQSGEAGGGLSLPHAEAHEFWKHQEKLQCLSLLYLFSVCHILLLVHPTCSFDITYDRVFRALDGLRQKVLPLLKTAIKDCPVGKDWKLNCRPCPPRLLFLFQLNGALKVEPPRNQDPAHPDKPKKHSPKRRLQHALEDQIYRIFRKSRVLTNQSINCLFTVPANQAFVYIVPGSQEEDPVGMLLDQLRSHCTVKDPESLLVPAPLSGPRRYQVMRQHSRQQLSFHIDSSSSSSSGQLVDFTLREFLWQHVELVLSKKGFDDSVGRNPQPSHFELPTYQKWISAASKLYEVAIDGKEEDLGSPTGELTSKILSSIKVLEGFLDIDTKFSENRCQKALPMAHSAYQSNLPHNYTMTVHKNQLAQALRVYSQHARGPAFHKYAMQLHEDCYKFWSNGHQLCEERSLTDQHCVHKFHSLPKSGEKPEADRNPPVLYHNSRARSTGACNCGRKQAPRDDPFDIKAANYDFYQLLEEKCCGKLDHINFPVFEPSTPDPAPAKNESSPAPPDSDADKLKEKEPQTQGESTSLSLALSLGQSTDSLGTYPADPQAGGDNPEVHGQVEVKTEKRPNFVDRQASTVEYLPGMLHSNCPKGLLPKFSSWSLVKLGPAKSYNFHTGLDQQGFIPGTNYLMPWDIVIRTRAEDEGDLDTNSWPAPNKAIPGKRSAVVMGRGRRRDDIARAFVGFEYEDSRGRRFMCSGPDKVMKVMGSGPKESALKALNSDMPLYILSSSQGRGLKPHYAQLMRLFVVVPDAPLQIILMPQVQPGPPPCPVFYPEKQEITLPPDGLWVLRFPYAYVTERGPCFPPKENVQLMSYKVLRGVLKAVTQ
 | binds | binds | UPF1, full length (natural protein) MSVEAYGPSSQTLTFLDTEEAELLGADTQGSEFEFTDFTLPSQTQTPPGGPGGPGGGGAGGPGGAGAGAAAGQLDAQVGPEGILQNGAVDDSVAKTSQLLAELNFEEDEEDTYYTKDLPIHACSYCGIHDPACVVYCNTSKKWFCNGRGNTSGSHIVNHLVRAKCKEVTLHKDGPLGETVLECYNCGCRNVFLLGFIPAKADSVVVLLCRQPCASQSSLKDINWDSSQWQPLIQDRCFLSWLVKIPSEQEQLRARQITAQQINKLEELWKENPSATLEDLEKPGVDEEPQHVLLRYEDAYQYQNIFGPLVKLEADYDKKLKESQTQDNITVRWDLGLNKKRIAYFTLPKTDSGNEDLVIIWLRDMRLMQGDEICLRYKGDLAPLWKGIGHVIKVPDNYGDEIAIELRSSVGAPVEVTHNFQVDFVWKSTSFDRMQSALKTFAVDETSVSGYIYHKLLGHEVEDVIIKCQLPKRFTAQGLPDLNHSQVYAVKTVLQRPLSLIQGPPGTGKTVTSATIVYHLARQGNGPVLVCAPSNIAVDQLTEKIHQTGLKVVRLCAKSREAIDSPVSFLALHNQIRNMDSMPELQKLQQLKDETGELSSADEKRYRALKRTAERELLMNADVICCTCVGAGDPRLAKMQFRSILIDESTQATEPECMVPVVLGAKQLILVGDHCQLGPVVMCKKAAKAGLSQSLFERLVVLGIRPIRLQVQYRMHPALSAFPSNIFYEGSLQNGVTAADRVKKGFDFQWPQPDKPMFFYVTQGQEEIASSGTSYLNRTEAANVEKITTKLLKAGAKPDQIGIITPYEGQRSYLVQYMQFSGSLHTKLYQEVEIASVDAFQGREKDFIILSCVRANEHQGIGFLNDPRRLNVALTRARYGVIIVGNPKALSKQPLWNHLLNYYKEQKVLVEGPLNNLRESLMQFSKPRKLVNTINPGARFMTTAMYDAREAIIPGSVYDRSSQGRPSSMYFQTHDQIGMISAGPSHVAAMNIPIPFNLVMPPMPPPGYFGQANGPAAGRGTPKGKTGRGGRQKNRFGLPGPSQTNLPNSQASQDVASQPFSQGALTQGYISMSQPSQMSQPGLSQPELSQDSYLGDEFKSQIDVALSQDSTYQGERAYQHGGVTGLSQY
